Reference: patent US20190367572A1

Molecular target: sonic hedgehog protein (SHH), endogenous in rat MPG/CN organ culture (rat) (UniProt Q63673)
Test: cell-based or functional assay

sonic hedgehog protein (SHH), endogenous in rat MPG/CN organ culture (rat), sequence (Q63673 25-198 limits assumed): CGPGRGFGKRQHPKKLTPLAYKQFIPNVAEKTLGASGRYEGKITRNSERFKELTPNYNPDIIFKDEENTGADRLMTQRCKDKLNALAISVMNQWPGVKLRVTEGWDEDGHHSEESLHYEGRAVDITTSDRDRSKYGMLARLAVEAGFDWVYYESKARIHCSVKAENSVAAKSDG

Substance: 5E1 SHH inhibitor (antibody)
- neurite formation (growth cones per mm) in uninjured MPG/CN organ culture, three days: 86 % reduction
- neurite formation (growth cones per mm) in uninjured MPG/CN organ culture, three days (fold reduction): 7.3
